{"source": "the DeepSol protein solubility set"}
{"assay": "soluble on expression in E. coli; label from the status in PepcDB or PDB records"}
{"sequence": "MGSDKIHHHHHHWFMPFDNWLYQLQNADPVEISSSGFEIAVIDYSKDGSESGEYSPEEIKIMVDAGVVPVAYVNIGQAEDYRFYWKESWYTNTPEWLGEEDPAWPGNYFVKYWYNEWKEIVFSYLDRVIDQGFKGIYLDRIDSFEYWAQEGVISRRSAARKMINFVLEIAEYVRERKPDMLIIPQNGENILDFDDGQLASTVSGWAVENLFYLKTIPLEENETKSRLEYLIRLNRKGKFILSVDYVDDGSDSFENISRILDYYEKAKRNGCIPYAARSDLELDEMNVIEGIQPPEALKDYESRTYR", "soluble on expression in E. coli": "not soluble"}
{"sequence": "MQKTLSAIFLFTTLSANAAPYIGLELGIGTANHSFETNYQSDAVSLNPNMEDMFLGGLIGYKFNDNFSFEINYSSYKLEDQYSKFIGIESLNNQQYRKEHEWSSEIEAKQLALISVYSYPIHQQLKTNIKVGVTHTQYEAYSGKYEELELLLNDDIEIRKALLETGLKKNRFGALFSLGLDYNLIPELSVGTELRYQFDKYNDVLSISLNSKYYF", "soluble on expression in E. coli": "not soluble"}
{"sequence": "MTIHQHPHVTDRDAHFVGGGIASLAGAAFLVRDGNMPGENIHVYEKLDVVGGAMDGAGDPDEAYLIRGGRMFNYPAYECTWDLFETIPSLEDDSRSVKAVMDEFNETHPSYAKTRLMHEGERIDAGEYGLTRQHRQSIARLLLTPEPRLGDTRIEEWFDESFLETNFWYVWATIFAFQPWHSVAEVRRYMYRFLHEFPQLHTMEGIDRTKYNQYDSMILPLRRWLEDRGVSFEYGHEVTDMDIVPSRTGRTVERLYCETDSGTETVPVEPSDLVFVTNGSMTDGSSIGGMDEAPELNETGASWELWKSIAEDNPQFGNPSVFADNVTETKWESFTVTLHNTDLFDHIVDFTNEEPGNGLVTYLGSNWLLSTVVAAQPHFANQPDDVKVFWGYALFPDREGNYVEKPMSECTGREILQELCYHLQCEERLPEILDDVTCIPAMMPFITAHFQPREPGDRPDVVPDGSNNLAFLGQYAEQPRDVVFTVEYSVRSAMTAVYEMLDLDREVPPVSKHYRKPGVIADTVRAAYRLEHHHHHH", "soluble on expression in E. coli": "not soluble"}
{"sequence": "MSEMPAREQMISAYSELVGLDPVSLGDGVAEVRLPMAAHLRNRGGVMHGGALFSLMDVTMGLACSSSHGFDRQSVTLECKINYIRAVADGEVRCVARVLHAGRRSLVVEAEVRQGDKLVAKGQGTFAQL", "soluble on expression in E. coli": "soluble"}
{"sequence": "MGSDKIHHHHHHMYYLSFSISSNCGLSAAAEHLQNKIVTLNVINSTDFNTVIAFTLARDIDAMRNDFAKDFKTVYIARGKKAAFINGTKISHGIVPAMISEQIIPLYPIFAENGSEWFNAIVLEKEHIDNFVALIEKKNNIETLDYERIRNGDSMFSIIKNANRGIFTLELTETERRIVNSSLRQGFFSWPRSYDLTSISREFGLTKPTILYHIRNAERKVMEALFGS", "soluble on expression in E. coli": "not soluble"}
{"sequence": "MGSDKIHHHHHHAACEKDPDMDKLDNDYLVYTNYDKKADFKQFSTYYIPDSVLVIGDKKDPEYWKGEAAEAIINAYKENLNSKGFTYTDNKDAADLGIQVSYVQSTYYFTDYGQPEWWWNYPGYWDAPYWGNWGGWYYPYVVNYSITTNSFLTEIMNLKAPEGEKQKLPVLWSSFLSGPASYSGKVNQTLVVRAINQSFAQSPYLTNK", "soluble on expression in E. coli": "not soluble"}
{"sequence": "MTTPTFDINAAIQALREGKDLTGKDGILTPLIKQLTEAALAAELDSHLTSTEGANRKNGKTTKTIKSPLGNFELNTPRDRAGTFEPQLVKKHQTQLTDEMERKIIGLFSLGSSYQDIRAHIEDMYGMSVSNGTVNAITDKLLPELQAWRERELEPLYPVIWLDAIHYKIKENGRFISKAVYTILALNVDGKKELLGLYLSDNEGAHHWLSVLTDLYNRGVKDILIACVDGLKGFPEAIATIYPQTEVQLCVIHQIRNSIKYVASKHQKAFMADLKCVYKAATLNAAEMALDELETKWGDKYPVVIKSWRNKWALLSVYFKYPDYVRTAIYTTNAVEAVHRQFRKLAKTKGGFANENSLLKLLYAGILKASERWTHP", "soluble on expression in E. coli": "soluble"}
{"sequence": "GLCDGHMHIESGMLTPAEFAAAVIPHGTTTMFTDPHEIANVLGLAGVRMMHDEALMQPVNIFTQMPSCAPSAPGLETTGYEITPEDVAEAMTWPGIIGLGEMMNFPGVTNADPKMLAEIAATQRAGKTVGGHYASPDLGPAFAAYVAGGPADDHEGTCEADAIARVRQGMRSMMRLGSAWYDVETQITAVTEKGLDPRNFILCTDDCHSATLVNDGHMNRVVRHAIACGCDPLIALQMATINTATHFGLERELGSTAPGRRADVILTSDLRDLPIELVIARGQVVAENGKIAVDCPHYDWPD", "soluble on expression in E. coli": "not soluble"}
{"sequence": "MSLKSGTLRVWLFQEVNNKPKEKVVDAALADFEKAHADTKVTVEYIPVETRAQRIKAAFNDPKSAPDVVEFGNTDTAGYVKDGGLADISEEFAAWDEAKDADSTARQSVTVDGKVYGAPYFVGVRALYYRTDVFDELGLKAPRTLAELASTAKRVRAAKPDLYGLAVGGAYTYGAMPFIWANGGDIATGKGGSYASAIDSAAAQKGIKAYTSLFGDANCPAAKCAGMTGNDTVTAFASGKAAMAIGGDFSHQAMEAGAVKGKYAVVPLPGVEPGSIAPAFAGGNNIGVLKSTSHRTLAVDLMKRLASKKAQGELFDAMGFLPTFTDVRQQVAAREPFVKPFVDTLAAGTKFVPASPAWATIDSSLVLPTMFQEVVSGKKDVGAAAGDAARKMDDAFGSAGEGHHHHHH", "soluble on expression in E. coli": "soluble"}
{"sequence": "MSLKATYSMLSQVTFPLAEAGYYVVPVALADETFRQNGLTSAGDVHQVSPAKLREIYGADAALYVTVSDYGTRYMVISSATIVTASAKLVDLRSGTTLWTGSATASSEEGNGGNNGGLVGMLITAAVKQIINSSVEDAGYPIAGMTSARLLSAGQPGGLLYGPRSPRYGSDEGHHHHHH", "soluble on expression in E. coli": "soluble"}
{"sequence": "MLSVRVAIVGGGLAGLYAAALLEARGVTDYVLLEARETFGGRIMSVPVAAEPDAQRDAAERFDLGATWFWPAMQPELLRVVTAFGVEAFEQYETGAMLVERARDQPAMRIDAGASMSGAWRMAGGMGALTDAISRRLDAARLRAGWRVQRLRKVDEGVDVEAEDGVGRARCWRAAQVLLAMPPRLAVRTVAFAPALPDVLALPWAACQTWMAPHAKYLAVYDMPFWREQGLSGGARSAAGPLAEIHDASGQQGGAALFGFLGVPAAARGRMAQADLRAACRAQLVRLFGERARWPRAEFLKDWADDVCTAVDADRCAQGSHAELPPALADAGAWKDRLIGIASEWSPAFGGYAAGAVDAARRGVEALLGSPDAGVPARRHQGRLWEAWRLEHHHHHH", "soluble on expression in E. coli": "soluble"}
{"sequence": "MSLATSYVGTVAGEKITTKEFKYFLGYVKIQMENDAQLQDQASKEAFWDSKIEGVDAKELAKQKALDSCKEFKIQLLKARERGLFLNDKDMQEIENSITTLLNQMAQFDQAAKNTGVEVMSAEEMLKDTYGVTIQEYKEILKDLRLVLKLVEDEQKNITITEEELRNRYNENKDVFDKITVRHIIFYTINPKTDVSLSEDAKKKAYENAKKALERANKGEDMEALALELSEDSGVEGNKGILEINSLKVNEPKLSNLVKWAYEHKVGDTDIVETGYGYHVVKIEKRTEYKDVVQNVKNVILSERYNQILGQWKQEPQYDLKKNEFALKRIKEGHHHHHH", "soluble on expression in E. coli": "soluble"}
{"sequence": "MKVTSLDGRQLRKMLRKEAAARCVVLDCRPYLAFAASNVRGSLNVNLNSVVLRRARGGAVSARYVLPDEAARARLLQEGGGGVAAVVVLDQGSRHWQKLREESAARVVLTSLLACLPAGPRVYFLKGGYETFYSEYPECCVDVKPISQEKIESERALISQCGKPVVNVSYRPAYDQGGPVEI", "soluble on expression in E. coli": "not soluble"}
{"sequence": "MSLSDVAKKVGVSPITISRALRNPEIVSEDLRQTILRTVDEMGYIPNLAARALAGRHNGTVGVITPALHQHGFAGLMLGIEDRLRATEFGVQYSNTLHHADGEAGQLKSFLMQKPAGVIIAGAESYHDLLPLIEKAACPIAHITDLSQEPERLVVGLDHHAAGAEPTRFLLSRGYQRIGFIGGGTDVRSRRRREGYEAAMREAGRFDPDLAIGADAAGTTGLGRELLTRLLARVPDIDAVFAQNDELALGVLIECGVRGIRVPENFGICGFNDLEFSAFTEPSLTTVHIPRYEVGYRVADMLLRAVRSEPPGEEKVDCGFSVIPRGSTREGHHHHHH", "soluble on expression in E. coli": "soluble"}
{"sequence": "MHRCGESSVAGTDARIRLEGNRLFVGGPVTYDNVVEVIRTGDAAIKADDMLIDLAGVTWVDSSAVSMLLEWMRTAQTYDRRIEFINLPSNLADLIELYDVGSLIPTDKPAESV", "soluble on expression in E. coli": "not soluble"}
{"sequence": "MAHHHHHHMPSDRVPSGDGFNNPYGNTTLVGNWLEDRLQQRIVHKRRGGAAATWCAQGIFEDPAVTMARHPAEAQAALLHSTYDVDYGHRPGRTQRTASGGVDNSAAASTLMRGSKHNANAAGPGSASSTAKGGIDKVLLFSIDPVADPAAPLPLSTNADTYGAFYYGNDNGSVDNNGARHAGSATGATTSSPADQGDGGATAPPADADRNLYDSVSRAVAAAAAPSSSFRMPRAPMQRGANADATFSSSPVPRRHMLSLGVATTSTFGHTGWTLASSSATSAADHVGAAPWRPLQRHRLPNKDSMDDERWCSSKQAADTPVEHFTLQQRLPPVRM", "soluble on expression in E. coli": "not soluble"}
{"sequence": "MAATNHAQAIKKDTKDFITTALLQMLAKEKLQALTVSQICKRAGVSRMAFYRNFNGLEQILYEYYQPKIGAMFDTIRENPQFSAKFDSQLKFFNTFGDDIILSIDRGFEPIIQQIFKEEIEKFYFKDNDEHWTTFMSAGVYAIWRKWLLDGRQKPLKEIMDFFKQFDMIKGNV", "soluble on expression in E. coli": "not soluble"}
{"sequence": "GPGSMPHGISYYEFPWPDMTAPQQDIVLRSVQVMDYHIKQKGKVLVHCHAGLGRTGLMIACYYVYSQHIPSDEAIALVRKMRPGAIQTTRQAQFIADFEKHLWRLSQAFRVEISDALIDLNLFIQRQRLVLHGEQADLYKSVPLFLHTILCRLLNLTKDNPEAARLALQSLGPSAAPTDTTLSACRIAINRRRFRVQSVRDVSILSFLVCDWFRSTSSPALTEENCDQIVESMRASISKQEGLPLEIRRILSKPARHTLGMVISAFFIISRQVGCVSLTNFAFRCVVDSFNHAFNPIKVRHSPLERELIHKFFLEWGESVGDLYFNYDTVPAAHRTIKRIALASSIVLEATKNTDPPRRSSPSVRTLSVPSSTPEMSSNPAKQTGAPDSALVFSTQSRASHLFDMPLAVETDSESKTRLWRQHLIEYRRDTDGRRGRGERQRPPASSADAKVKR", "soluble on expression in E. coli": "not soluble"}
{"sequence": "MVNRIQNPILPGFHPDPSIVRVGDDYYIATSTFEWFPGVRIHHSRDLKHWRFVSSPLTRTSQLDMKGNMNSGGIWAPCLSYHDGTFYLIYTDVKQWHGAFKDAHNYLVTAQNIEGPWSDPIYLNSSGFDPSLFHDDDGRKWLVNMIWDYRKGNHPFAGIILQEYSEAEQKLVGPVKNIYKGTDIQLTEGPHLYKKDGYYYLLVAEGGTEYEHAATLARSQSIDGPYETDPSYPLVTSTGQPELALQKAGHGSLVETQNGEWYLAHLCGRPLKGKYCTLGRETAIQKVNWTEDGWLRIEDGGNHPLREVTAPDLPEHPFEKEPELDDFDAPQLHHQWNTLRIPADPSWCSLEERPGHLRLRGMESLTSVHSQSLVARRQQSFHCEVETKLEYQPESFQHMAGLVIYYDTEDHVYLHVTWHEEKGKCLQIIQTKGGNYDELLASPIPLAEEKAVYLKGRIHRETMHLYFKQEGEAEWQPVGPTIDVTHMSDDSAKQVRFTGTFVGMATQDLSGTKKPADFDYFRYKELDQ", "soluble on expression in E. coli": "soluble"}
{"sequence": "MHHHHHHSSGVDLGTENLYFQSMGEVVMSQAIQPAHATARGELSAGQLLKWIDTTACLAAEKHAGVSCVTASVDDIQFEETARVGQVITIKAKVTRAFSTSMEISIKVMVQDMLTGIEKLVSVAFSTFVAKPVGKEKIHLKPVTLLTEQDHVEHNLAAERRKVRLQHEDTFNNLMKESSKFDDLIFDEEEGAVSTRGTSVQSIELVLPPHANHHGNTFGGQIMAWMETVATISASRLCWAHPFLKSVDMFKFRGPSTVGDRLVFTAIVNNTFQTCVEVGVRVEAFDCQEWAEGRGRHINSAFLIYNAADDKENLITFPRIQPISKDDFRRYRG", "soluble on expression in E. coli": "soluble"}
